IC50 data for 1 molecule are collected here from patent publication US20100310640A1.

Holding throughout (test): radiolabeled-peptide inhibition, purified HLA-DR
Common to all, as to conditions: remark: other sources report otherwise

In one assay the target is T1, HLA-DR DRB1*0101 (human).
T1 chain 1: not shown
T1 chain 2: not shown

For another assay, the target named is T2, HLA-DR DRB1*0401 (human).
T2 chain 1: not shown
T2 chain 2: not shown

The target of a further assay is T3, HLA-DR DRB1*0404 (human).
T3 chain 1: not shown
T3 chain 2: not shown

The target of a further assay is T4, HLA-DR DRB1*0701 (human).
T4 chain 1: not shown
T4 chain 2: not shown

For another assay, the target named is T5, HLA-DR DRB1*1101 (human).
T5 chain 1: not shown
T5 chain 2: not shown

In another assay the target is HLA-DR DRB1*1501 (human).
For a further assay, the target named is T6, HLA-DR DRB4*0101 (human).
T6 chain 1: not shown
T6 chain 2: not shown

B1: 9019.0055 (peptide)
peptide: SLTLQGLGISWLGLR
What is called IC50 is the concentration that inhibits the measured activity by half. Read a high IC50 as weaker potency. B1: the IC50 in the assay with HLA-DR DRB1*0101 (human) amounted to 93 nM; with HLA-DR DRB1*0401 (human) it was 143 nM; in the assay with HLA-DR DRB1*0404 (human), 110 nM; with HLA-DR DRB1*0701 (human) it was 3100 nM; with HLA-DR DRB1*1101 (human), 6310 nM; with HLA-DR DRB1*1501 (human), 50 nM. For the same molecule, the IC50 with HLA-DR DRB4*0101 (human) came out at 22 nM.
